Measured values: patent US20250049896A1 (Regeneron, published 2025)

How the values were obtained:
[1] = biological target: T1, hmm.hTfRC (REGN2431), human transferrin receptor extracellular domain with hexahistidine-myc-myc tag (human, UniProt P02786 89-760); assay: SPR (Biacore), mAb from CHO supernatant captured on anti-human Fc, 100 nM hTFR-mmh injected, 25 C
T1 construct: Monomeric recombinant protein, 79210 g/mol; also called hTFR-mmh; His-myc-myc-hTFRC ecto

[2] = biological target: T2, mf TFRC ecto-mmh (REGN2054), monomeric monkey (cyno) Tfrc ectodomain with C-terminal myc-myc-hexahistidine tag (monkey (cyno), Macaca fascicularis, UniProt H9EXL1 89-760); assay: SPR (Biacore), mAb from CHO supernatant captured on anti-human Fc, 100 nM mfTfR-mmh injected, 25 C
T2 construct: range 89-760; also called mfTfR-mmh; mfTFR-mmh
T2 sequence (chain, as listed by the source): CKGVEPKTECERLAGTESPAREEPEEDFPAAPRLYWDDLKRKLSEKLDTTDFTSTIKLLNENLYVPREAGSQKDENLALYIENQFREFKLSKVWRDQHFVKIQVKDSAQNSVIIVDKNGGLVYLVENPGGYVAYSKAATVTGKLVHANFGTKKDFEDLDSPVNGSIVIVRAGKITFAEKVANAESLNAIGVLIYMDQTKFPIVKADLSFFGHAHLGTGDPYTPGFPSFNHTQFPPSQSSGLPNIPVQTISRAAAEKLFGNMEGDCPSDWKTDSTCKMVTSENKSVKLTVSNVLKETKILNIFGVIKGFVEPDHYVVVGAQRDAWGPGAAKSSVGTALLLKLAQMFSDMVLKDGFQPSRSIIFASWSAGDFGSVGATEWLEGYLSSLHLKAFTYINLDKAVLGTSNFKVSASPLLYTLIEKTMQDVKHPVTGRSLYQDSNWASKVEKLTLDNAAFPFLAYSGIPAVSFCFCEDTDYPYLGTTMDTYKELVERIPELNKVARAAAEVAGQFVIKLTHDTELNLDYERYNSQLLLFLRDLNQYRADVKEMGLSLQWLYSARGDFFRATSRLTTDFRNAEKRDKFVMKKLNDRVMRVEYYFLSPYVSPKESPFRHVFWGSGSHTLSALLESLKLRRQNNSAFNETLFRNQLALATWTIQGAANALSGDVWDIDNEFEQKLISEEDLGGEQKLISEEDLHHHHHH
Protocol: Biacore binding kinetics assays were conducted for the interaction of 32 anti-human TfR IgG1 monoclonal antibodies from CHO supernatants with TfR reagents at 25° C.
Equilibrium dissociation constants (KD) for the interaction of anti-TfR monoclonal antibodies with human and fascicularis monkey TfR ecto domain recombinant proteins were determined using a real-time surface plasmon resonance (SPR) based Biacore S200 biosensor. All binding studies were performed in 10 mM HEPES, 150 mM NaCl, 3 mM EDTA, and 0.05% v/v surfactant Tween-20, pH 7.4 (HBS-EP) running buffer at […]. The Biacore CM5 sensor surface was first derivatized by amine coupling with a monoclonal mouse anti-human Fc antibody (REGN2567) followed by a step to capture anti-TfR monoclonal antibodies in CHO conditioned media. […] The dissociation of TfR bound to anti-TfR monoclonal antibodies was monitored for 3 minutes in HBS-EP running buffer. At the end of each cycle, the anti-TfR monoclonal antibodies capture surface was regenerated using a 12-sec injection of 20 mM H₃PO₄. The association rate (ka) and dissociation rate (kd) were determined by fitting the real-time binding sensorgrams to a 1:1 binding model with mass transport limitation using Scrubber 2.0 c software. The dissociation equilibrium constant (KD) and dissociative half-life (t½) were calculated from the kinetic rate constants as: […]

[3] = biological target: T2, mf TFRC ecto-mmh (REGN2054), monomeric …; assay: SPR (Biacore), mAb captured on anti-human Fc, 100 nM mfTfR-mmh, 25 C
[4] = biological target: T1, hmm.hTfRC (REGN2431), human transferrin …; assay: SPR (Biacore), mAb captured on anti-human Fc, 100 nM hTFR-mmh, 25 C

T1 sequence (P02786 other isoform, or with tags, fused parts or gaps): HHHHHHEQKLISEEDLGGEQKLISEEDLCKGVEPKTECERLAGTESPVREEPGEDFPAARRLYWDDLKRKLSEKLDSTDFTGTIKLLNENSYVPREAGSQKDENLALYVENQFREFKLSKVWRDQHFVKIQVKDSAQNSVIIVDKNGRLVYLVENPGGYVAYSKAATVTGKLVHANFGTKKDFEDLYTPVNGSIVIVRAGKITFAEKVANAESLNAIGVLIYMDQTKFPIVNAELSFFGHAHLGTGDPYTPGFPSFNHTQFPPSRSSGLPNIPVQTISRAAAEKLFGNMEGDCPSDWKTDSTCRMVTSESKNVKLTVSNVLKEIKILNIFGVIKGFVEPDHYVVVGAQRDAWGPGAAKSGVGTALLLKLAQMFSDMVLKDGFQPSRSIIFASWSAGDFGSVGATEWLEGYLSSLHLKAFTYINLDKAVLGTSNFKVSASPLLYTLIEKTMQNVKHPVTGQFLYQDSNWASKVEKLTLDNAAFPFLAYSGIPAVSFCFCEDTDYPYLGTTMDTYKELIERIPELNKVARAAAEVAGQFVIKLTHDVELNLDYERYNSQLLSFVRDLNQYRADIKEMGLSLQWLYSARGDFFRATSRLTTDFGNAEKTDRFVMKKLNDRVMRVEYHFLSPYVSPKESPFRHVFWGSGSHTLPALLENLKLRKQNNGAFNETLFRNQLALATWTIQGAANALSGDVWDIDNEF

- binding result [1]: no binding (tested: 100 nM)
- binding result [2]: no binding (tested: 100 nM)
- 100 nM Ag Bound (RU) [3]: 1 RU
- 100 nM Ag Bound (RU) [4]: 9 RU
B1: 69332 (antibody, human IgG1, kappa, V domains shown)
VH: QVTLRESGPALVKPSQTLTLTCTFSGFSLNTYGMFVSWIRQPPGKALEWLAHIHWDDDKYYSTSLKTRLTISKDTSKNQVVLTMTNMDPVDTATYYCARGHNNLNYIIHWGQGTLVTVSS
VL: AIQMTQSPSSLSASVGDRVTITCRASQGIRNDLGWYQQKPGKAPKLLIYAASTLQSGVPSRFSGSGSGTDFTLTISSLQPEDFATYYCLQDYNYPFTFGPGTKVDIKR
notes: Tested as bivalent human IgG1 from CHO primary supernatant
